Values quoted from earlier work as cited in article PMC1074345.

Molecular target: Angiotensin II AngII (Homo sapiens) (UniProt P01019)
Assay: radioligand

UniProt P01019, sequence (P01019 whole entry, looked up): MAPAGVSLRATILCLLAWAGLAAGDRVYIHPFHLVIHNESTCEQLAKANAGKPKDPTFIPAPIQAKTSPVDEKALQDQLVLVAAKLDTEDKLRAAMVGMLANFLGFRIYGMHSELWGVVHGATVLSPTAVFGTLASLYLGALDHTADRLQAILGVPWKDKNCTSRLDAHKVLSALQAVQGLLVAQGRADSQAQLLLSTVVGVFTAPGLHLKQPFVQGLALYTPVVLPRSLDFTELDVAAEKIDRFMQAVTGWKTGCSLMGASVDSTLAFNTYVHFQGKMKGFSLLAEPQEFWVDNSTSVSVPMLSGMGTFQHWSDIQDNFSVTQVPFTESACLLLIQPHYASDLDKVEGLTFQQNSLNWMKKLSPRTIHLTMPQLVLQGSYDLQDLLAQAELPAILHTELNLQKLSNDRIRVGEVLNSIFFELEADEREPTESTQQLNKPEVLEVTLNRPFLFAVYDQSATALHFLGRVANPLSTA

Row | Substance | Kd [nM]
1 | AT1 receptor (from UniProt P30556) | 0.36
2 | AT2 receptor (from UniProt P50052) | 0.17
